{
  "source": "IntAct's records for PubMed 17595294",
  "parents": {"B1": {"name": "Glycine--tRNA ligase (Homo sapiens), P41250 (parent)", "chain": "MPSPRPVLLRGARAALLLLLPPRLLARPSLLLRRSLSAASCPPISLPAAASRSSMDGAGAEEVLAPLRLAVRQQGDLVRKLKEDKAPQVDVDKAVAELKARKRVLEAKELALQPKDDIVDRAKMEDTLKRRFFYDQAFAIYGGVSGLYDFGPVGCALKNNIIQTWRQHFIQEEQILEIDCTMLTPEPVLKTSGHVDKFADFMVKDVKNGECFRADHLLKAHLQKLMSDKKCSVEKKSEMESVLAQLDNYGQQELADLFVNYNVKSPITGNDLSPPVSFNLMFKTFIGPGGNMPGYLRPETAQGIFLNFKRLLEFNQGKLPFAAAQIGNSFRNEISPRSGLIRVREFTMAEIEHFVDPSEKDHPKFQNVADLHLYLYSAKAQVSGQSARKMRLGDAVEQGVINNTVLGYFIGRIYLYLTKVGISPDKLRFRQHMENEMAHYACDCWDAESKTSYGWIEIVGCADRSCYDLSCHARATKVPLVAEKPLKEPKTVNVVQFEPSKGAIGKAYKKDAKLVMEYLAICDECYITEMEMLLNEKGEFTIETEGKTFQLTKDMINVKRFQKTLYVEEVVPNVIEPSFGLGRIMYTVFEHTFHVREGDEQRTFFSFPAVVAPFKCSVLPLSQNQEFMPFVKELSEALTRHGVSHKVDDSSGSIGRRYARTDEIGVAFGVTIDFDTVNKTPHTATLRDRDSMRQIRAEISELPSIVQDLANGNITWADVEARYPLFEGQETGKKETIEE", "partner": "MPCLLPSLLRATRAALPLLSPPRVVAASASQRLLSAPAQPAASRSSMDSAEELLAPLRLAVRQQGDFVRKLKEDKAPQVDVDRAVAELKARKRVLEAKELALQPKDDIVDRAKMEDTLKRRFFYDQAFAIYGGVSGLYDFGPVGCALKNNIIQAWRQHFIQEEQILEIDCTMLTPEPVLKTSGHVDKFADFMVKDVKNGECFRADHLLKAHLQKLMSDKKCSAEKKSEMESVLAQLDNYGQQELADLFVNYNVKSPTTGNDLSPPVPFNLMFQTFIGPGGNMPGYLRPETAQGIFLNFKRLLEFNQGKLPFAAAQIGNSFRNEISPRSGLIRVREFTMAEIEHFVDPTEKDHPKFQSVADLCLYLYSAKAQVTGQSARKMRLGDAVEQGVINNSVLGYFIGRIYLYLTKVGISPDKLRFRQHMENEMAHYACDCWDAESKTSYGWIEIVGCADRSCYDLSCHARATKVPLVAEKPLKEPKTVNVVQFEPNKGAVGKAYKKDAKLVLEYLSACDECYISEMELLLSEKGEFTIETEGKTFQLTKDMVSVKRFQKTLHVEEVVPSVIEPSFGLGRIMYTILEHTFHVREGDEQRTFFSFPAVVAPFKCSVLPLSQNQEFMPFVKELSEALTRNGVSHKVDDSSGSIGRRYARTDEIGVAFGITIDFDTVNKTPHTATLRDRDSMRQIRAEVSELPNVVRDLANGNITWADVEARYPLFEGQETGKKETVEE"}},
  "data": [
    {"variants_of": "B1", "conditions": "with gars_mouse Gars1, Q9CZD3", "values": [
      {"variant": "L183P", "effect of a mutation on the interaction": "disrupting interaction strength"},
      {"variant": "G294R", "effect of a mutation on the interaction": "disrupting interaction strength"},
      {"variant": "D554N", "effect of a mutation on the interaction": "increasing interaction strength"},
      {"variant": "G580R", "effect of a mutation on the interaction": "increasing interaction strength"},
      {"variant": "S644L", "effect of a mutation on the interaction": "increasing interaction strength"}
    ]}
  ]
}
